Target: soluble human neonatal Fc receptor (shFcRn; FcRn heavy chain ectodomain / beta2-microglobulin heterodimer) (UniProt P55899+P61769)
Assay: SPR (BIAcore 3000)
Details: 25°C, 150 mM NaCl, HBS-P: 10 mM HEPES at pH 6.0 and pH 7.5 (same buffer at both pH)

Row | koff (pH 6.0) [s⁻¹] | koff (pH 7.4) [s⁻¹] | Kd (pH 6.0) [nM] | kon (pH 6.0) [M⁻¹ s⁻¹] | Kd (pH 7.5) [nM] | koff (pH 7.5) [s⁻¹] | kon (pH 7.5) [M⁻¹ s⁻¹] | Substance
1 | 0.0177 | 0.0752 |  |  |  |  |  | DX-2500 (germlined parental clone M90-F11), fully human anti-FcRn IgG1 germlined relative to M90-F11 (changes not printed)
2 | 0.00035 |  | 1.5 | 240000 | 1.9 | 0.00028 | 150000 | DX-2504 (clone M161-B04), fully human anti-FcRn IgG1 Affinity-matured heavy-chain CDR variant of DX-2500/M90-F11 (substitutions not printed)
3 | 0.00024 |  | 1.8 | 130000 | 2 | 0.00024 | 100000 | DX-2507, fully human anti-FcRn IgG1 (variant of DX-2504) relative to DX-2504: LC-CDR3 Cys->Ala (position number not printed); C-terminal Lys deleted

— publication PMC4407741
